Key:
[1] = target: human immunoglobulin G drug separated from human plasma (human); test: SPR, Biacore 3000, human IgG immobilized; reference C-G29A/S33E.1d
[2] = target: human immunoglobulin G drug separated from human plasma (human); test: SPR, Biacore 3000, human IgG immobilized on CM5, peptide as analyte, 25 C, pH 7.4, 1:1 model

Substance | affinity constant KA relative to C-G29A/S33E.1d [1] [fold] | Ka [2] [M⁻¹] | koff [2] [s⁻¹] | kon [2] [M⁻¹ s⁻¹]
C-G29A/S33E/K7E/H18D/V40D/A46D/Q55E.1d (designed binder) | 0.1 | 5.7e+06 | 0.00519 | 29000
C-G29A/S33E/K7E/A46E.1d (designed binder) |  | 3.9e+07 | 0.00709 | 276000

Source: patent US20160215026A1
